Assay results from the supplement of paper PMC11136658.

Test system: peptide library, one residue held at a place counted from the Y acceptor
Assay: relative phosphorylation of the sub-library (ratio to the mean residue at this position); higher = residue favoured
How it was run: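 Each value expresses phosphorylation relative to the mean randomized residue. Purified recombinant kinases acted for 90 min in 384-well plates on biotinylated Tyr-centred peptide library mixtures, with one residue fixed at one position from −5 to +5, in the presence of 50 μM ATP with γ-32P-ATP. Signals were read by phosphorimaging after capture on streptavidin membranes, then normalized per position to the sum of the 18 randomized residues (16 in the Ser/Thr-free library) and multiplied by that number.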

Sequence of FLT4, construct: aa800-end, human (P35916 800-1363, looked up): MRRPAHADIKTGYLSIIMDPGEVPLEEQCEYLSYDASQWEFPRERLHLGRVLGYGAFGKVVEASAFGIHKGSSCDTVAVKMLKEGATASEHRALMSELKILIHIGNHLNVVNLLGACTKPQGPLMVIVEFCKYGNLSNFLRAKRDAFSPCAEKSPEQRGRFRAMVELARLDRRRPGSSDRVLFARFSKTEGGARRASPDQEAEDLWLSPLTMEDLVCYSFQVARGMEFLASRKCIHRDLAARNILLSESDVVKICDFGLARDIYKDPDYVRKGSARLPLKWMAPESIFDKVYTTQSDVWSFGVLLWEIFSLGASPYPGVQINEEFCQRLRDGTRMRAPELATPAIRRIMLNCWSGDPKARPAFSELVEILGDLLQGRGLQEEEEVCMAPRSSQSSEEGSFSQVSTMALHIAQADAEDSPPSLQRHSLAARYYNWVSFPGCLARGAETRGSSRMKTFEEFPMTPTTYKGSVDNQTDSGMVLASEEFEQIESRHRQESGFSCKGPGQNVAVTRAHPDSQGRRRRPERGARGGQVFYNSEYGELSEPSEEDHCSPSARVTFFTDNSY
Sequence of FRK, construct: aa208-end, human (P42685 208-505, looked up): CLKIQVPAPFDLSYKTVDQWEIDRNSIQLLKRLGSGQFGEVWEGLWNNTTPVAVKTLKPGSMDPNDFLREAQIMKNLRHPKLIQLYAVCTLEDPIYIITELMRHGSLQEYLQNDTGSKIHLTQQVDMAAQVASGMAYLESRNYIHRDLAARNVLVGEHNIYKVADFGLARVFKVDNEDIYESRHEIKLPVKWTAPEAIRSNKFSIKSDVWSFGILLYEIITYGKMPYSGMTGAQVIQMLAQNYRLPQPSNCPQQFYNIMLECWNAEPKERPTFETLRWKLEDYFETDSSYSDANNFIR
Sequence of FLT1, construct: aa748-end, human (P17948 748-1338, looked up): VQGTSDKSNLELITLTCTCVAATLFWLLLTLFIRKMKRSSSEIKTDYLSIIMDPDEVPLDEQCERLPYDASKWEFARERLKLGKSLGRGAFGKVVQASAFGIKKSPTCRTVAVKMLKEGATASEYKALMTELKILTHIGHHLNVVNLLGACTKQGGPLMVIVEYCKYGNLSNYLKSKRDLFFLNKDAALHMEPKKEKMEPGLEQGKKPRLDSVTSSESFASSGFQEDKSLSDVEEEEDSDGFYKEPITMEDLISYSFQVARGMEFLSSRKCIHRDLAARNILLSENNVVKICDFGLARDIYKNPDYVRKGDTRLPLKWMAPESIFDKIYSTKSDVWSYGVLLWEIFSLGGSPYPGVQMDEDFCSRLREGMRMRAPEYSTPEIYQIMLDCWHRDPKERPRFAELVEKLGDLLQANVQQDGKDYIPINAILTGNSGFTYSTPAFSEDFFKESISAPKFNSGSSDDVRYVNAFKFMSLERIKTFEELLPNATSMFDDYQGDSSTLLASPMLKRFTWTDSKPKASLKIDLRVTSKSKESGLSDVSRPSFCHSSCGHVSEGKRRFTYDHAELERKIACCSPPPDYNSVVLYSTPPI

FLT1, construct: aa748-end, human (from UniProt P17948)
relative phosphorylation
Details	at +1	at +2	at +3	at +4	at +5	at -1	at -2	at -3	at -4	at -5
A fixed	0.624	0.689	0.604	0.797	0.722	0.496	0.885	0.899	0.91	0.956
D fixed	0.478	1.49	0.636	1.1	1.01	3.57	1.75	1.66	1.4	1.24
E fixed	0.487	0.899	0.582	0.817	0.933	2.46	1.57	1.66	1.38	1.1
F fixed	2.3	1.38	1.99	0.981	1.13	0.92	0.797	1.01	0.956	1.14
G fixed	0.478	0.439	0.633	0.845	0.911	0.446	1.11	1.03	1.1	1.1
H fixed	1.38	1.17	0.7	1.3	1.17	1.18	1.07	1.22	1.12	1.24
I fixed	1.34	0.698	1.46	0.709	0.639	0.948	0.597	0.599	0.653	0.745
K fixed	0.683	1.21	0.625	1.39	1.27	0.432	1.01	0.853	1.01	1.14
L fixed	0.873	0.86	1.63	0.787	0.844	0.639	0.633	0.729	0.693	0.727
M fixed	1	0.867	1.6	0.8	0.786	0.559	0.696	0.73	0.797	0.801
N fixed	0.533	1.19	0.755	1.06	1.11	1.16	1.16	1.17	0.929	0.953
P fixed	0.415	0.574	1.02	1.4	1.28	0.525	1.08	0.781	0.897	1.03
Q fixed	0.957	0.926	0.684	0.88	1.09	0.81	1.14	1.05	1.02	0.936
R fixed	0.875	1.53	0.729	1.46	1.25	0.458	1.13	1.01	1.1	1.11
S fixed	0.67	0.923	0.698	0.968	0.83	0.462	1.14	1.08	0.867	0.982
T fixed	0.987	1.11	0.666	0.83	0.839	0.705	1.04	0.906	0.887	0.891
V fixed	1.94	0.766	1.09	0.681	0.723	0.747	0.655	0.594	0.701	0.763
W fixed	1.63	1.32	1.27	0.985	1.12	0.649	0.724	1.01	1.34	1.02
pThr fixed	0.947	2.03	0.788	1.08	0.963	2.55	1.42	2.05	1.86	1.78
pTyr fixed	2.58	2.77	0.88	0.609	0.679	2.54	2.3	3.12	2.64	1.66

FLT4, construct: aa800-end, human (from UniProt P35916)
relative phosphorylation
Details	at +1	at +2	at +3	at +4	at +5	at -1	at -2	at -3	at -4	at -5
A fixed	0.654	0.524	0.48	0.749	0.758	0.638	0.879	0.799	0.976	0.878
D fixed	0.367	0.647	0.424	0.913	1.12	2.84	1.25	1.3	1.05	1.04
E fixed	0.448	0.846	0.366	0.895	0.95	1.93	1.3	1.34	1.16	0.956
F fixed	2.19	1.57	3.08	1.07	1.31	1.09	0.748	1.04	1.14	1.12
G fixed	0.351	0.332	0.713	1.01	0.98	0.492	0.949	0.888	0.967	0.956
H fixed	1.08	1.05	0.595	1.33	1.12	1.24	1.16	1.16	1.08	1.27
I fixed	1.69	1.02	1.82	0.723	0.927	1.05	0.825	0.743	0.798	0.898
K fixed	0.643	0.864	0.396	1.16	1.01	0.439	0.921	0.964	0.992	1.08
L fixed	1.06	1.36	2.1	0.856	1.06	0.746	0.887	0.845	0.928	0.853
M fixed	1.02	1.07	1.98	0.98	0.991	0.655	0.962	0.853	0.837	0.953
N fixed	0.534	0.899	0.389	0.868	1.1	1.6	1.2	1.24	0.896	1.08
P fixed	0.571	0.471	0.588	1.17	1.04	0.583	0.945	0.8	0.915	0.822
Q fixed	1.25	0.896	0.59	1.09	0.967	1.15	1.16	1.11	1.08	1.07
R fixed	0.734	1.3	0.554	1.37	1.01	0.507	1.17	1.09	1.14	1.24
S fixed	0.599	0.684	0.506	0.92	0.829	0.657	1.08	1.09	0.843	0.921
T fixed	0.9	0.895	0.72	0.848	0.771	0.792	0.899	1.01	0.74	0.848
V fixed	2.12	0.975	1.4	0.751	0.774	0.892	0.766	0.712	0.844	0.777
W fixed	1.78	2.6	1.3	1.3	1.28	0.706	0.895	1.03	1.61	1.23
pThr fixed	0.737	1.37	0.521	0.8	1.08	1.47	0.969	1.13	1.03	0.981
pTyr fixed	2.51	2.96	0.651	0.9	0.834	3.16	1.24	1.38	1.29	1.06

FRK, construct: aa208-end, human (from UniProt P42685)
relative phosphorylation
Details	at +1	at +2	at +3	at +4	at +5	at -1	at -2	at -3	at -4	at -5
A fixed	1.2	0.883	0.702	0.821	1.01	0.594	1.14	0.808	1.11	1.05
D fixed	0.563	0.473	0.24	0.573	0.93	0.836	1.19	1.92	1.14	1.12
E fixed	2.3	0.65	0.193	0.549	0.861	1.92	1.73	2.11	1.84	0.931
F fixed	1.03	1.6	1.95	1.38	1.21	0.878	0.642	0.892	1.03	1.07
G fixed	0.519	0.445	0.589	1.01	0.861	0.34	1.13	1.09	1.27	1.21
H fixed	0.91	0.758	0.741	1.32	1.15	0.777	1.02	0.902	0.913	0.993
I fixed	1.54	1.29	2.29	0.88	0.807	3.11	1.1	0.761	0.923	1.07
K fixed	0.343	0.897	0.475	1.23	1.06	0.27	0.568	0.631	0.719	0.858
L fixed	1.25	1.36	1.56	0.937	1.01	2.46	0.895	0.852	0.993	1.09
M fixed	1.76	0.966	1.3	1.22	0.914	1.13	0.67	0.895	0.929	1.12
N fixed	0.382	1.01	0.568	0.737	0.702	0.573	1.01	1.06	0.888	0.973
P fixed	0.116	0.601	0.87	0.971	1.15	0.452	1.3	1.04	1.1	1.11
Q fixed	1.23	0.748	0.469	0.965	0.974	0.664	1.01	0.838	1.06	0.966
R fixed	0.492	1.11	1.52	1.35	1.2	0.311	0.656	0.674	0.769	0.863
S fixed	0.919	1.09	0.642	0.863	1.01	0.433	1.03	0.938	0.792	0.836
T fixed	0.825	1.17	0.767	0.771	0.853	0.9	0.9	0.882	0.634	0.8
V fixed	1.18	1.21	1.71	0.865	0.934	1.9	1.3	0.778	0.793	0.825
W fixed	1.44	1.73	1.43	1.55	1.36	0.453	0.716	0.929	1.09	1.11
pThr fixed	1.09	1.58	0.217	0.462	0.638	2.06	1.3	1.28	0.91	0.853
pTyr fixed	4.6	2.61	0.782	0.659	0.692	1.06	1.28	1.7	1.57	0.867
